Source: patent publication US20140357577A1, “HIV Membrane Fusion Inhibitors” (priority 2011, published 2014)
Starred links: 1 amine or outer side, 2 acyl side, 3 side chain; linkers in the order of their positions; H or OH if unused. Positions of bridges follow the written chain, without caps; N, C: chain ends. Non-standard residues stand in square brackets, D forms with d. *: point of attachment. cholesteryl‑succinyl = CC(C)CCC[C@@H](C)[C@H]1CC[C@H]2[C@@H]3CC=C4C[C@@H](OC(=O)CCC(=O)*)CC[C@]4(C)[C@H]3CC[C@]12C; B21 = 2,7-dimethylnaphtyl, c1cc2ccc(C[*:2])cc2cc1C[*:1]; pXylylene = c1cc(C[*:2])ccc1C[*:1]; Suc = O=C(CCC(=O)[*:2])[*:1]; hCys = N[C@@H](CCS)C(=O)O; B1 = not defined here

The binders below were run against gp41 of HIV-1 strain HXB2D with mutation V38A (HIV-1 strain HXB2D, UniProt P04578) (assay: cell-based or functional assay).

| Binder | fold change in EC50, HIV-HXB2D V38A mutant |
| --- | --- |
| Ac-A[hCys]YAA[hCys]IEALIRAAQEQQEKNEAALR-NH2 (linker 2-6 via B21; SMILES CC[C@H](C)[C@H](NC(=O)[C@H](CC(C)C)NC(=O)[C@H](C)NC(=O)[C@H](CCC(=O)O)NC(=O)[C@@H](NC(=O)[C@@H]1CCSCc2ccc3ccc(cc3c2)CSCC[C@H](NC(=O)[C@H](C)NC(C)=O)C(=O)N[C@@H](Cc2ccc(O)cc2)C(=O)N[C@@H](C)C(=O)N[C@@H](C)C(=O)N1)[C@@H](C)CC)C(=O)N[C@@H](CCCNC(=N)N)C(=O)N[C@@H](C)C(=O)N[C@@H](C)C(=O)N[C@@H](CCC(N)=O)C(=O)N[C@@H](CCC(=O)O)C(=O)N[C@@H](CCC(N)=O)C(=O)N[C@@H](CCC(N)=O)C(=O)N[C@@H](CCC(=O)O)C(=O)N[C@@H](CCCCN)C(=O)N[C@@H](CC(N)=O)C(=O)N[C@@H](CCC(=O)O)C(=O)N[C@@H](C)C(=O)N[C@@H](C)C(=O)N[C@@H](CC(C)C)C(=O)N[C@@H](CCCNC(=N)N)C(N)=O) [peptide 78] | 61 fold |
| Ac-ACYAACIEALIRAAQEQQEKNEAALR-NH2 (linker 2-6 via pXylylene; SMILES CC[C@H](C)[C@H](NC(=O)[C@H](CC(C)C)NC(=O)[C@H](C)NC(=O)[C@H](CCC(=O)O)NC(=O)[C@@H](NC(=O)[C@@H]1CSCc2ccc(cc2)CSC[C@H](NC(=O)[C@H](C)NC(C)=O)C(=O)N[C@@H](Cc2ccc(O)cc2)C(=O)N[C@@H](C)C(=O)N[C@@H](C)C(=O)N1)[C@@H](C)CC)C(=O)N[C@@H](CCCNC(=N)N)C(=O)N[C@@H](C)C(=O)N[C@@H](C)C(=O)N[C@@H](CCC(N)=O)C(=O)N[C@@H](CCC(=O)O)C(=O)N[C@@H](CCC(N)=O)C(=O)N[C@@H](CCC(N)=O)C(=O)N[C@@H](CCC(=O)O)C(=O)N[C@@H](CCCCN)C(=O)N[C@@H](CC(N)=O)C(=O)N[C@@H](CCC(=O)O)C(=O)N[C@@H](C)C(=O)N[C@@H](C)C(=O)N[C@@H](CC(C)C)C(=O)N[C@@H](CCCNC(=N)N)C(N)=O) [peptide 68] | 21 fold |
| Ac-ACYAACIEALIRAAQEQQEKNEALLR-NH2 (linker 2-6 via pXylylene; SMILES CC[C@H](C)[C@H](NC(=O)[C@H](CC(C)C)NC(=O)[C@H](C)NC(=O)[C@H](CCC(=O)O)NC(=O)[C@@H](NC(=O)[C@@H]1CSCc2ccc(cc2)CSC[C@H](NC(=O)[C@H](C)NC(C)=O)C(=O)N[C@@H](Cc2ccc(O)cc2)C(=O)N[C@@H](C)C(=O)N[C@@H](C)C(=O)N1)[C@@H](C)CC)C(=O)N[C@@H](CCCNC(=N)N)C(=O)N[C@@H](C)C(=O)N[C@@H](C)C(=O)N[C@@H](CCC(N)=O)C(=O)N[C@@H](CCC(=O)O)C(=O)N[C@@H](CCC(N)=O)C(=O)N[C@@H](CCC(N)=O)C(=O)N[C@@H](CCC(=O)O)C(=O)N[C@@H](CCCCN)C(=O)N[C@@H](CC(N)=O)C(=O)N[C@@H](CCC(=O)O)C(=O)N[C@@H](C)C(=O)N[C@@H](CC(C)C)C(=O)N[C@@H](CC(C)C)C(=O)N[C@@H](CCCNC(=N)N)C(N)=O) [peptide 73] | 60 fold |
| Ac-[dA]CYAACIEALIRAAQEQQEKNEAAL[dR]-NH2 (linker 2-6 via 2,7‑dimethylnaphthyl) [peptide 75] | 21 fold |
| Ac-[dA]CYAACIEALIRAAQEQQEKNEAAL[dR]-NH2 (linker 2-6 via 2,7‑dimethylnaphthyl) [peptide 76] | 48 fold |
| Suc-ANYAALIEALIRAAQEQQEKNEAALR-NH2 (SMILES CC[C@H](C)[C@H](NC(=O)[C@H](CC(C)C)NC(=O)[C@H](C)NC(=O)[C@H](CCC(=O)O)NC(=O)[C@@H](NC(=O)[C@H](CC(C)C)NC(=O)[C@H](C)NC(=O)[C@H](C)NC(=O)[C@H](Cc1ccc(O)cc1)NC(=O)[C@H](CC(N)=O)NC(=O)[C@H](C)NC(=O)CCC(=O)O)[C@@H](C)CC)C(=O)N[C@@H](CCCNC(=N)N)C(=O)N[C@@H](C)C(=O)N[C@@H](C)C(=O)N[C@@H](CCC(N)=O)C(=O)N[C@@H](CCC(=O)O)C(=O)N[C@@H](CCC(N)=O)C(=O)N[C@@H](CCC(N)=O)C(=O)N[C@@H](CCC(=O)O)C(=O)N[C@@H](CCCCN)C(=O)N[C@@H](CC(N)=O)C(=O)N[C@@H](CCC(=O)O)C(=O)N[C@@H](C)C(=O)N[C@@H](C)C(=O)N[C@@H](CC(C)C)C(=O)N[C@@H](CCCNC(=N)N)C(N)=O) [peptide 3] | 74 fold |
| Ac-ACYAACIEALIRKAQEQQEKNEAALR-NH2 (linker 2-6 via pXylylene; SMILES CC[C@H](C)[C@H](NC(=O)[C@@H]1CSCc2ccc(cc2)CSC[C@H](NC(=O)[C@H](C)NC(C)=O)C(=O)N[C@@H](Cc2ccc(O)cc2)C(=O)N[C@@H](C)C(=O)N[C@@H](C)C(=O)N1)C(=O)N[C@@H](CCC(=O)O)C(=O)N[C@@H](C)C(=O)N[C@@H](CC(C)C)C(=O)N[C@H](C(=O)N[C@@H](CCCNC(=N)N)C(=O)N[C@@H](CCCCN)C(=O)N[C@@H](C)C(=O)N[C@@H](CCC(N)=O)C(=O)N[C@@H](CCC(=O)O)C(=O)N[C@@H](CCC(N)=O)C(=O)N[C@@H](CCC(N)=O)C(=O)N[C@@H](CCC(=O)O)C(=O)N[C@@H](CCCCN)C(=O)N[C@@H](CC(N)=O)C(=O)N[C@@H](CCC(=O)O)C(=O)N[C@@H](C)C(=O)N[C@@H](C)C(=O)N[C@@H](CC(C)C)C(=O)N[C@@H](CCCNC(=N)N)C(N)=O)[C@@H](C)CC) [peptide 71] | 11 fold |
| Ac-ECYAACIEALIRAAQEQQEKNEAALR-NH2 (linker 2-6 via pXylylene; SMILES CC[C@H](C)[C@H](NC(=O)[C@H](CC(C)C)NC(=O)[C@H](C)NC(=O)[C@H](CCC(=O)O)NC(=O)[C@@H](NC(=O)[C@@H]1CSCc2ccc(cc2)CSC[C@H](NC(=O)[C@H](CCC(=O)O)NC(C)=O)C(=O)N[C@@H](Cc2ccc(O)cc2)C(=O)N[C@@H](C)C(=O)N[C@@H](C)C(=O)N1)[C@@H](C)CC)C(=O)N[C@@H](CCCNC(=N)N)C(=O)N[C@@H](C)C(=O)N[C@@H](C)C(=O)N[C@@H](CCC(N)=O)C(=O)N[C@@H](CCC(=O)O)C(=O)N[C@@H](CCC(N)=O)C(=O)N[C@@H](CCC(N)=O)C(=O)N[C@@H](CCC(=O)O)C(=O)N[C@@H](CCCCN)C(=O)N[C@@H](CC(N)=O)C(=O)N[C@@H](CCC(=O)O)C(=O)N[C@@H](C)C(=O)N[C@@H](C)C(=O)N[C@@H](CC(C)C)C(=O)N[C@@H](CCCNC(=N)N)C(N)=O) [peptide 74] | 33 fold |
| Ac-ACYAACIEELIRKAQEQQEKNEAALR-NH2 (linker 2-6 via pXylylene; SMILES CC[C@H](C)[C@H](NC(=O)[C@@H]1CSCc2ccc(cc2)CSC[C@H](NC(=O)[C@H](C)NC(C)=O)C(=O)N[C@@H](Cc2ccc(O)cc2)C(=O)N[C@@H](C)C(=O)N[C@@H](C)C(=O)N1)C(=O)N[C@@H](CCC(=O)O)C(=O)N[C@@H](CCC(=O)O)C(=O)N[C@@H](CC(C)C)C(=O)N[C@H](C(=O)N[C@@H](CCCNC(=N)N)C(=O)N[C@@H](CCCCN)C(=O)N[C@@H](C)C(=O)N[C@@H](CCC(N)=O)C(=O)N[C@@H](CCC(=O)O)C(=O)N[C@@H](CCC(N)=O)C(=O)N[C@@H](CCC(N)=O)C(=O)N[C@@H](CCC(=O)O)C(=O)N[C@@H](CCCCN)C(=O)N[C@@H](CC(N)=O)C(=O)N[C@@H](CCC(=O)O)C(=O)N[C@@H](C)C(=O)N[C@@H](C)C(=O)N[C@@H](CC(C)C)C(=O)N[C@@H](CCCNC(=N)N)C(N)=O)[C@@H](C)CC) [peptide 72] | 10 fold |
| Ac-ANYLALIEALIRAAQEQQEKNEAALRGSGK(cholesteryl‑succinyl)-NH2 (SMILES CC[C@H](C)[C@H](NC(=O)[C@H](CC(C)C)NC(=O)[C@H](C)NC(=O)[C@H](CCC(=O)O)NC(=O)[C@@H](NC(=O)[C@H](CC(C)C)NC(=O)[C@H](C)NC(=O)[C@H](CC(C)C)NC(=O)[C@H](Cc1ccc(O)cc1)NC(=O)[C@H](CC(N)=O)NC(=O)[C@H](C)NC(C)=O)[C@@H](C)CC)C(=O)N[C@@H](CCCNC(=N)N)C(=O)N[C@@H](C)C(=O)N[C@@H](C)C(=O)N[C@@H](CCC(N)=O)C(=O)N[C@@H](CCC(=O)O)C(=O)N[C@@H](CCC(N)=O)C(=O)N[C@@H](CCC(N)=O)C(=O)N[C@@H](CCC(=O)O)C(=O)N[C@@H](CCCCN)C(=O)N[C@@H](CC(N)=O)C(=O)N[C@@H](CCC(=O)O)C(=O)N[C@@H](C)C(=O)N[C@@H](C)C(=O)N[C@@H](CC(C)C)C(=O)N[C@@H](CCCNC(=N)N)C(=O)NCC(=O)N[C@@H](CO)C(=O)NCC(=O)N[C@@H](CCCCNC(=O)CCC(=O)O[C@H]1CC[C@@]2(C)C(=CC[C@H]3[C@@H]4CC[C@H]([C@H](C)CCCC(C)C)[C@@]4(C)CC[C@@H]32)C1)C(N)=O) [peptide 69] | 1 fold |
| Ac-ACYAACIDALIRAAQEQQEKNEAALR-NH2 (linker 2-6 via pXylylene; SMILES CC[C@H](C)[C@H](NC(=O)[C@H](CC(C)C)NC(=O)[C@H](C)NC(=O)[C@H](CC(=O)O)NC(=O)[C@@H](NC(=O)[C@@H]1CSCc2ccc(cc2)CSC[C@H](NC(=O)[C@H](C)NC(C)=O)C(=O)N[C@@H](Cc2ccc(O)cc2)C(=O)N[C@@H](C)C(=O)N[C@@H](C)C(=O)N1)[C@@H](C)CC)C(=O)N[C@@H](CCCNC(=N)N)C(=O)N[C@@H](C)C(=O)N[C@@H](C)C(=O)N[C@@H](CCC(N)=O)C(=O)N[C@@H](CCC(=O)O)C(=O)N[C@@H](CCC(N)=O)C(=O)N[C@@H](CCC(N)=O)C(=O)N[C@@H](CCC(=O)O)C(=O)N[C@@H](CCCCN)C(=O)N[C@@H](CC(N)=O)C(=O)N[C@@H](CCC(=O)O)C(=O)N[C@@H](C)C(=O)N[C@@H](C)C(=O)N[C@@H](CC(C)C)C(=O)N[C@@H](CCCNC(=N)N)C(N)=O) [peptide 70] | 11 fold |
| Ac-A[hCys]YAA[hCys]IEALIRAAQEQQEKNEAALR-NH2 (linker 2-6 via B1; reading uncertain) [peptide 77] | 39 fold |
